Article PMC6911004, “Fragment-based screening identifies molecules targeting the substrate-binding ankyrin repeat domains of tankyrase” (Scientific Reports, 2019)

Columns and labels:
Format in all cases: binding
[1] = target: T1, TNKS2 ARC4 aromatic glycine sandwich (YY536/569AA) (Homo sapiens, UniProt Q9H2K2, Y536A/Y569A); assay: T2 relaxation-edited NMR with mutant ARC
T1 construct: TNKS2 ARC4 (488–649); His6-GST; made in house; host or cells: E. coli BL21-CodonPlus (DE3)-RIL
From the text: We used three previously designed TNKS2 ARC4 mutant variants[4] to explore potential binding determinants for fragment 9. A WFE591/593/598AAA triple-mutation abrogates three key residues in the “arginine cradle”; YY536/569AA truncates two tyrosine residues that form the “glycine sandwich”, and L560W introduces a bulky residue into the “central patch” that sterically clashes with the TBM peptide (see Fig. 5A,B for locations of the mutated residues). We tested binding of compound 9 to the wild-type and mutant ARCs by ligand-observed NMR, using the relaxation-edited assay (Fig. 5C, Table 4). […] Binding was impaired but not abolished for the “central patch” mutant variant (L560W).
Fragments were dispensed in duplicate into a 384-well plate (250 nL, 100 mM stock in DMSO). […] Solutions were transferred to 1.7 mm NMR tubes using a Gilson liquid handling system. ^1H NMR spectra were recorded, with the DMSO and water signals dampened. […] The average integral for all peaks between 6.0–10.0 ppm was calculated, and the difference between compound-only and compound-plus-protein samples was compared. […] For competitive experiments, 3BP2 16-mer peptide (100 μM) was added, and the spectra were recorded and processed as above. The variability in signal reduction in the relaxation-edited experiment was previously determined as approximately ± 10% (Liu et al., unpublished observations).

TNKS2 ARC1 = target: T2, TNKS2 ARC1 (Homo sapiens, UniProt Q9H2K2); assay: Differential scanning fluorimetry (DSF); settings: ARC 20 μM + 3BP2 TBM peptide 200 μM, inflection point method
T2 construct: TNKS2 ARC1 (20–178); His6-GST; made in house; host or cells: E. coli
T2 sequence (Q9H2K2 whole entry, looked up): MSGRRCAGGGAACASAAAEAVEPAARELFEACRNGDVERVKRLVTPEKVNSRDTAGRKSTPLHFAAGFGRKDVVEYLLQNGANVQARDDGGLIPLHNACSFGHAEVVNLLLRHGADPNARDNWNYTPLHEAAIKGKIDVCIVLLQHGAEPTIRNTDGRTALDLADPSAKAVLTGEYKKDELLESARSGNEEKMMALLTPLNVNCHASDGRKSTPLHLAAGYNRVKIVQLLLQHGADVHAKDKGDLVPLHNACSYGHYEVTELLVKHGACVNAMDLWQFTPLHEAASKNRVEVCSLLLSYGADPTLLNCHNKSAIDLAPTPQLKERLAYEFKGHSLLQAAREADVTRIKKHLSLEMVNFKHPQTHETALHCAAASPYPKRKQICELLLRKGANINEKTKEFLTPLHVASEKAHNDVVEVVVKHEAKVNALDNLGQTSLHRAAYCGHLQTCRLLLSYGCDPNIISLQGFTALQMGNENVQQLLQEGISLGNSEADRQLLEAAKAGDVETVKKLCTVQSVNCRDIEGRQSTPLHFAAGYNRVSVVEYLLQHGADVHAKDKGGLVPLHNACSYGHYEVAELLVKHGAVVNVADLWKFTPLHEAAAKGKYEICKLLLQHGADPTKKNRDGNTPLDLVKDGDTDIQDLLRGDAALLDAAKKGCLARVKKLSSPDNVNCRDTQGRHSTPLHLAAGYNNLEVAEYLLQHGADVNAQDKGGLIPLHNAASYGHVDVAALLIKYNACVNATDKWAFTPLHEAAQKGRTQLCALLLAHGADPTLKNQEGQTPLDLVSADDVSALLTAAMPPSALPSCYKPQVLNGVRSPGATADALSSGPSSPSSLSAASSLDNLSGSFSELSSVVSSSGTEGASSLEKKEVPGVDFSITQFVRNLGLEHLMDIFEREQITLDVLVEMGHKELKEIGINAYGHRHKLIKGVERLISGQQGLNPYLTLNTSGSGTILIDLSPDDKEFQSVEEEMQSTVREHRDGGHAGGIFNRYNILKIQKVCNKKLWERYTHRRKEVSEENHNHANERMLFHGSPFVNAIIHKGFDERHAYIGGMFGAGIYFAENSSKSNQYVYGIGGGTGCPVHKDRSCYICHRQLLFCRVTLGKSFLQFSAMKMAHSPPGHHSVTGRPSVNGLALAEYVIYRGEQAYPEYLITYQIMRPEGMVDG
Description: (§1) For the experiment shown in Fig. 2A, ARC and 3BP2 TBM peptide concentrations were 20 and 200 μM, respectively, in 50 mM HEPES-NaOH pH 7.5, 100 mM NaCl, 2 mM TCEP and a total volume of 25 μL. SYPRO Orange was added at 5×. Data were recorded from 4–95 °C, with the temperature ramped by 0.5 °C every 15 s, using a CFX384 thermal cycler (Bio-Rad). Data were analysed by non-linear regression in GraphPad Prism using a Boltzmann sigmoid with linear baselines. ΔTm values were determined using the inflection point method.

TNKS2 ARC4 = target: T3, TNKS2 ARC4 (Homo sapiens, UniProt Q9H2K2); assay: Differential scanning fluorimetry (DSF); settings: ARC 20 μM + 3BP2 TBM peptide 200 μM, inflection point method
T3 construct: The cell was filled with TNKS2 ARC4 (488–649); His6-GST; made in house; host or cells: E. coli
T3 sequence (Q9H2K2 488-649): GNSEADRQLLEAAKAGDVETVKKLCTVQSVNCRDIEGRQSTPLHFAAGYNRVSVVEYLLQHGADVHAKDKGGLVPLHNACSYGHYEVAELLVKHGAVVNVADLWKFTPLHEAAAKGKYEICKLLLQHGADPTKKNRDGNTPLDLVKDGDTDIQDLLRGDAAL
Description: as §1

Compound | T2 relaxation-edited: reduction of signal integrals [1] [%] | ΔTm (TNKS2 ARC1) [°C] | ΔTm (TNKS2 ARC4) [°C]
O=C(NCc1ccco1)c1ccc2nccnc2c1 [compound 9] | 0 | – | –
LPHLQRSPPDGQSFRSW [3BP2 16-mer peptide, 16-mer TBM peptide derived from 3BP2, W added for A280, N-terminus acetylated, C-terminus amide-capped; positive control, reference compound] | – | 1.34 | 0.63
